Experimental data reported in patent US20230183371A1 (University of Texas, published 2023).
Where a chain is given by its changes, count along the chain named.

T1: human CD79b expressed on cells (human, UniProt P40259 29-229)
T1 construct: whole, on cells; also called human CD79b expressed on mouse fibroblast L cells; CD79b on B cell lymphoma cell lines (Daudi, SUDHL6)
T1 sequence (looked up): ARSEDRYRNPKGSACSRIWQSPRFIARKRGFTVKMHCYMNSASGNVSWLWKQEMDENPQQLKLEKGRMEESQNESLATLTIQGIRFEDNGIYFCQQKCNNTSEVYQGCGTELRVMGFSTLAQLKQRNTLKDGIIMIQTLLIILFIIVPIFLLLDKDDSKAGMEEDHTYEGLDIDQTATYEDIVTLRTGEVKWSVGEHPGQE

T2: recombinant human CD79b protein (human, UniProt P40259 29-159, limits assumed)
T2 sequence (looked up): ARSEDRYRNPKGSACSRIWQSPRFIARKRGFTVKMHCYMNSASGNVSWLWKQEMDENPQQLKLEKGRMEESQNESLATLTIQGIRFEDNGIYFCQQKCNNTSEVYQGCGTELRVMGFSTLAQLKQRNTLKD

B1: anti-CD79b monoclonal antibody clone 5B (antibody, V domains shown)
VH: EVQLQESGAELVKPGASVKMSCKASGYTFTSYWMHWVKQRPGQGLEWIGAIDPSDSYTGYNQKFKGKATLTVDTSSSTAYMHLSSLTSEDSAVYFCTRSYYGNSWFDYWGQGTLVTVSA
VL: DIVLTQSPASLAVSLGQRATISCKASQSVDYEGDSYMNWYQQKPGQPPKLLIYAASNLESGIPARFSGSGSGTDFTLNIHPVEEEDAATYHCQQSNEDPFTFGGGTKLEIK
notes: Full length monoclonal antibody isolated from hybridoma supernatant
B2: anti-CD79b monoclonal antibody clone 28B (antibody, V domains shown)
VH: B1 VH with D107A
VL: B1 VL with E32D, A54V, H91Y, G104S, K111N
notes: as for B1
B3: anti-human CD79b monoclonal antibody clone 45 (IgG2) (antibody, V domains shown)
VH: EVQLQESGAELVRPGALVKLSCRASGFNIKDYYMHWVKQRPEQGLEWIGWIDPENGNSIYDPKFQGKASITADTSSNTAYLQLSSLTSEDTAVYYCAVDLYYGRGTLVTVSA
VL: NIMMTQSPSSLAVSAGEKVTMRCKSSQSVLYSSNQKNYLAWYQQKPGQSPKLLIYWASTRESGVPDRFTGSGSGTDFTLTISSVQAEDLAVYYCHQFLSSYTFGGGTKLEIK
B4: anti-human CD79b monoclonal antibody clone 14 (IgG1) (antibody, V domains shown)
VH: EVQLQESGPELKKPGETVKISCKASGYTFTDYSMHWVKQAPGKGLKWMGWINTETGEPTYADDFKGRFAFSLETSASTAYLQINNLKNDDTATYFCNMDSWGQGTSVTVSS
VL: QIVLTQSPAIMSASPGEKVTMTCSASSSVSYMWWYHQKPGSSPRLLIFDTSNLASGVPVRFSGSGSGTSYSLTISRMEAEDAATYYCQQWTSYPYTFGGGTKLEIK

Columns and labels:
[1] = target: T1, human CD79b expressed on cells; assay: ELISA on mouse fibroblast L cells expressing human CD79b
Text: Binding of anti-CD79b antibodies to human CD79b: Full length anti-CD79b monoclonal antibodies (clones 5B and 28B) isolated from hybridoma supernatants were used to test binding to human CD79b expressed on mouse fibroblast L cells by ELISA (FIG. 7).

[2] = target: T2, recombinant human CD79b protein; assay: Octet assay
[3] = target: T2, recombinant human CD79b protein; assay: EC50 column of the drawn table; the table does not name the assay, the text gives an ELISA on recombinant human CD79b protein (FIG. 2B)
[4] = target: T2, recombinant human CD79b protein; assay: ELISA on recombinant human CD79b protein

| Binder | EC50 [1] | EC50 (read off the curve) [1] | Kd [2] | EC50 [3] | EC50 (read off the curve) [4] |
| --- | --- | --- | --- | --- | --- |
| B1 | 0.0409 µg/mL | ~0.04 µg/mL | – | – | – |
| B2 | 0.0252 µg/mL | ~0.02 µg/mL | – | – | – |
| B3 | – | – | 2 nM | 0.0301 µg/mL | ~0.03 µg/mL |
| B4 | – | – | 1.44 nM | 0.0162 µg/mL | ~0.02 µg/mL |
